T1: amphyphisin SH3 (AMPH_HUMAN), P49418
T1 chain: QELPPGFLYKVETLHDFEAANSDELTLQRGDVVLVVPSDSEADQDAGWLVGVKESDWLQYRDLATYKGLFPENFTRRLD


What was measured:
[1] = molecular target: T1, amphyphisin SH3 (AMPH_HUMAN), P49418; test: SPOT array
[2] = molecular target: endophilin SH3 (SH3G2_HUMAN), Q99962; test: SPOT array

Binder | normalised SPOT signal, Boehringer light units (BLU); mean over the file's lines of this peptide [1] | normalised SPOT signal, Boehringer light units (BLU); mean over the file's lines of this peptide [2]
EQGSLKRPVSRKVG [O15021 1020-1033] | 47.3 | 86.4
ELHVPIRPPRPSSP [O00485 108-122] | 12300 | 3980
AGPGPARPPVPPRP [P52849 60-74] | 5580 | 3370
EPPPPQKPPPPNSK [Q03111 455-469] | 44.4 | 2240
ELTIIERPVRRSLK [Q9HCF0 45-58] | 700 | 61.6
ENDNIERPVRRRHS [Q9NR92 11-24] | 88.7 | 59.3
ENESPLKPPGISMD [Q92610 35-49] | 50.4 | 22.2
EPPAPRRPASLAQR [Q9NP57 254-267] | 37.1 | 831
EREFLERPSRDHLY [Q12968 137-150] | 334 | 108
EKDHIRRPMNAFMI [Q9UEG5 39-52] | 30.2 | 67
EQFKIKRPAAWVDL [O43301 404-417] | 4.3 | 0
EPEEPKRPVPAERG [Q16584 619-632] | 104 | 40.1
ERPPPFKPPPPPIK [P40200 535-549] | 92.2 | 2690
EKIPFERPFRRPNA [Q9NVW8 327-340] | 948 | 123
EKGELGRPGRKGRP [Q9Y215 121-134] | 103 | 164
AGPRPRRPGSLPGW [Q14333 377-390] | 203 | 805
AGPRLPRPPREGST [Q9H224 58-71] | 2230 | 1130
ELEQLRRPPGTAER [Q9NZQ6 1526-1539] | 15.8 | 126
EQRPLKRPRLGPPD [Q96PC8 10-23] | 31 | 446
ESPLPRRPPRAARS [P81408 388-402] | 23200 | 8150
EMEPPPKPPRSSSA [Q9H7I0 90-104] | 4690 | 298

Binder | normalised SPOT signal, Boehringer light units (BLU); mean over the file's lines of this peptide [1] | normalised SPOT signal, Boehringer light units (BLU); mean over the file's lines of this peptide [2]
EPGLPVRPPGGGQS [O95954 457-471] | 374 | 59.4
EQYIPSRPLKTQEL [Q9Y259 145-158] | 32.2 | 159
EIPKPIKPPTYQVL [O60504 440-454] | 52.6 | 62.9
ELPRPRRPPPEDEE [P22460 83-97] | 40 | 36.9
EMTPPPKPPRLYLP [Q9UM03 505-519] | 1820 | 601
ELPRPRRPPLQWRY [Q9NSY0 103-117] | 1080 | 5930
EKGQPSRPTKSKDA [Q9NSC3 29-42] | 82.2 | 143
EREALKRPMGPVHY [Q9P0R4 128-141] | 11.6 | 50.5
EQKRPLRPRRKGRK [Q9P2K1 987-1000] | 11900 | 1010
ELAHLVRPQKSRPY [P42858 194-207] | 166 | 86.2
EKPKLRRPSDRSNG [Q9H9V7 590-603] | 10.1 | 80.5
ESGRPIKPPRKDLP [P25440 318-332] | 8960 | 1950
ELYPISRPLKKTWE [Q15047 309-322] | -0 | -0
ERDFLKRPLESYVK [Q10472 159-172] | 42.3 | 4.5
EQGGLLRPERDHVE [Q9ULV5 88-101] | 79.3 | 66.9
EMPHLARPIKVESP [Q08050 469-482] | 145 | 158
ESPPPKRPRIAYLS [P36508 395-408] | 39.3 | 332
EQPPPGRPPLRLED [Q9Y334 62-76] | 33.6 | 92.4
EKPILDRPTRISQP [Q9Y403 100-113] | 57.1 | 0.6
ELYLLFRPFKGYEG [Q93062 39-52] | 129 | 178
EQVDLIRPWRRLLE [Q9NU22 852-865] | 131 | 147
